Three molecules from paper PMC4624675 (2015) can be followed below.

Sequence of C-terminal Tandem UBL domain of human USP7 (TUD^USP7), wild type (human) (chain, as listed by the source): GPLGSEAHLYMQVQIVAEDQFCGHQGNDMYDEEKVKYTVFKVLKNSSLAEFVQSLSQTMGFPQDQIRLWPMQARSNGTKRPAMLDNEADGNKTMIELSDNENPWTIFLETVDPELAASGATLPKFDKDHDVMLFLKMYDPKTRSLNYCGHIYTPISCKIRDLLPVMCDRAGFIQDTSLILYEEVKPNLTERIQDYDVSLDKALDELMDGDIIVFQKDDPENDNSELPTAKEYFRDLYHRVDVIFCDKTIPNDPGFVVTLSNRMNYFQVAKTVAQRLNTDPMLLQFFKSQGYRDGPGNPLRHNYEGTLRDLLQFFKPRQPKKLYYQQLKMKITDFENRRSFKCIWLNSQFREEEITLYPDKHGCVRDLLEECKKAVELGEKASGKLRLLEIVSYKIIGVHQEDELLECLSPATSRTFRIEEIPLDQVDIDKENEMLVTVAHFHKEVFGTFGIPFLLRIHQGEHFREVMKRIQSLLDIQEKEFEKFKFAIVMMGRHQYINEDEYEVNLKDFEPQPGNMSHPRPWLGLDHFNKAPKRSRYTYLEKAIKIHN

The assay concerns the target C-terminal Tandem UBL domain of human USP7 (TUD^USP7), wild type (human). Description: ITC.
Molecule KGKGKGKGKGKP [KG-Linker of DNMT1 (GST pull-down bait)] gave a Kd of 3720 nM.

Molecule SGPRGPRKCARKTRHAETSGA [GST-tagged ICP0 (613–633), wild type] had a Kd of 270 nM.

In turn, TGKGKWKRKSAGGGPSRAGSPRRTSKKTKVEPY [UHRF1 (642–674) (GST pull-down bait)] came in with a Kd of 1540 nM.
